Measurements reported in patent publication US20060153844A1, “Methods to trigger, maintain and manipulate immune responses by targeted administration of biological response modifiers into lymphoid organs” (priority 2004, published 2006).

Test system: PLA2-specific IgG2a and IgG1 antibodies
Assay: anti-PLA2 IgG2a, IgG1 and IgE in sera after intralymphatic PLA2 plus TLR ligand
Format: in vivo, CBA/J mice
Protocol: The compounds were mixed within an hour before injection into the inguinal lymph node.
The sera were obtained over 13 weeks and analyzed by ELISA for anti-PLA2 IgG2a (FIG. 10A) and IgG1 (FIG. 10B). The ratio of IgG2a to IgG1 titers was calculated as a measure for Th1/Th2 immune response balance (FIG. 10C). […] Pre-immunization levels of anti-PLA2 antibodies were measured on sera from five mice taken the day before first injection.

B1: flagellin: flagellin, S. thyphimurium, TLR 5 ligand (protein, UniProt P06179 2-495, looked up)
Flagellin: AQVINTNSLSLLTQNNLNKSQSALGTAIERLSSGLRINSAKDDAAGQAIANRFTANIKGLTQASRNANDGISIAQTTEGALNEINNNLQRVRELAVQSANSTNSQSDLDSIQAEITQRLNEIDRVSGQTQFNGVKVLAQDNTLTIQVGANDGETIDIDLKQINSQTLGLDTLNVQQKYKVSDTAATVTGYADTTIALDNSTFKASATGLGGTDQKIDGDLKFDDTTGKYYAKVTVTGGTGKDGYYEVSVDKTNGEVTLAGGATSPLTGGLPATATEDVKNVQVANADLTEAKAALTAAGVTGTASVVKMSYTDNNGKTIDGGLAVKVGDDYYSATQNKDGSISINTTKYTADDGTSKTALNKLGGADGKTEVVSIGGKTYAASKAEGHNFKAQPDLAEAAATTTENPLQKIDAALAQVDTLRSDLGAVQNRFNSAITNLGNTVNNLTSARSRIEDSDYATEVSNMSRAQILQQAGTSVLAQANQVPQNVLSLLR
- kinetics of the antibody production (time of maximum titers) (i.ln. with 0.1 μg PLA2, sera over 13 weeks): peak titers were delayed
- anti-PLA2 antibody isotypes induced (IgG2a, IgG1) (i.ln. with 0.1 μg PLA2, three injections): induced both IgG2a and IgG1
